# Square brackets hold non-standard residues; d marks the D form. Ends that are not written are not given here. * marks the point of attachment. OBzl(3,5-(CF3)2) = FC(F)(F)c1cc(CO*)cc(C(F)(F)F)c1; Met(O) = CS(=O)CC[C@H](N)C(=O)O; OBn = c1ccc(CO*)cc1; βAla = NCCC(=O)O
# B1: H-Tyr-D-Ala-Gly-Phe-Nle-Pro-Leu-Trp-O-3,5-Bzl(CF3)2 (peptide)
# peptide: YAGFXPLW
# modifications: D-Ala at 2; Nle (norleucine, written X) at 5; C-terminal 3,5-bis(trifluoromethyl)benzyl ester
# notes: TFA salt; also called TY018
# Biological target: T1, human δ opioid receptor (human, UniProt P41143 1-372)
# Assay: cell-based or functional assay
# T1 sequence (P41143 whole entry, stated change not applied): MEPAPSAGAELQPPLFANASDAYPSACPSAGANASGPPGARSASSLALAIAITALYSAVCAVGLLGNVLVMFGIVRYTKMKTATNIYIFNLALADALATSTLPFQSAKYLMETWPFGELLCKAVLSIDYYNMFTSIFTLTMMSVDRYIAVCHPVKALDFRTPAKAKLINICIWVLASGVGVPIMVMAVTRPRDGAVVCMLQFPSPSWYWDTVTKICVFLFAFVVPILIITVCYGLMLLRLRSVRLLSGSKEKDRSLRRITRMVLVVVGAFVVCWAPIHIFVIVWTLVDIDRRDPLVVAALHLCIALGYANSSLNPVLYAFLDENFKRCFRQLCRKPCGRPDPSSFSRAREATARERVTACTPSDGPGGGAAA
Binder,[35S]GTP-γ-S binding EC50 [nM],[35S]GTP-γ-S binding Emax [%],[35S]GTP-γ-S binding LogEC50
"H-Y[dA]GFLPLW-{OBzl(3,5-(CF3)2)} (also: TFA salt, TFA salt; also called TY004) [H-Tyr-D-Ala-Gly-Phe-Leu-Pro-Leu-Trp-O-3,5-Bzl(CF3)2]",9.6,44,-8.09
"H-Y[dA]GF[Met(O)]PLW-{OBzl(3,5-(CF3)2)} (also: TFA salt, TFA salt; also called TY023) [H-Tyr-D-Ala-Gly-Phe-Met(O)-Pro-Leu-Trp-O-3,5-Bzl(CF3)2]",,53,-8.73
B1,4,129,-8.4

# Biological target: T2, rat µ opioid receptor (rat, UniProt P33535 1-398)
# Assay: cell-based or functional assay
# T2 sequence (P33535 whole entry): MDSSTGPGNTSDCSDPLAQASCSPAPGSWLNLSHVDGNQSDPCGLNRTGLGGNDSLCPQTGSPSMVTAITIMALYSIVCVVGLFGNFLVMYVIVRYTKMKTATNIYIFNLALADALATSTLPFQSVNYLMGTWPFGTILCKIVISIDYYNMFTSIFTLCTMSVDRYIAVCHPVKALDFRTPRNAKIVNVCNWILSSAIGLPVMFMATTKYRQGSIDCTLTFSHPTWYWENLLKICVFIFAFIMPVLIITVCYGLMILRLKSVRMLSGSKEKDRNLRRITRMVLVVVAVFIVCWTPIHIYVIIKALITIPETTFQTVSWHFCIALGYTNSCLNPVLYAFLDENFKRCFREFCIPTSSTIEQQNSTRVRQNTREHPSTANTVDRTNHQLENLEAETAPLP
row,Binder,[35S]GTP-γ-S binding Emax [%]
1,"H-Y[dA]GFLPLW-{OBzl(3,5-(CF3)2)} (also: TFA salt, TFA salt; also called TY004) [H-Tyr-D-Ala-Gly-Phe-Leu-Pro-Leu-Trp-O-3,5-Bzl(CF3)2]",46

# Biological target: µ opioid receptor of the guinea pig isolated ileum (guinea pig)
# Assay: cell-based or functional assay
row,Binder,GPI (µ) opioid agonist IC50 [nM]
1,"H-Y[dA]GFLPLW-{OBzl(3,5-(CF3)2)} (also: TFA salt, TFA salt; also called TY004) [H-Tyr-D-Ala-Gly-Phe-Leu-Pro-Leu-Trp-O-3,5-Bzl(CF3)2]",341
2,"H-Y[dA]GF[Met(O)]PLW-{OBzl(3,5-(CF3)2)} (also: TFA salt, TFA salt; also called TY023) [H-Tyr-D-Ala-Gly-Phe-Met(O)-Pro-Leu-Trp-O-3,5-Bzl(CF3)2]",154
3,B1,372

# Biological target: guinea pig NK1 receptor (guinea pig, UniProt P30547 1-407)
# Assay: cell-based or functional assay
# Target sequence in this assay (P30547 whole entry): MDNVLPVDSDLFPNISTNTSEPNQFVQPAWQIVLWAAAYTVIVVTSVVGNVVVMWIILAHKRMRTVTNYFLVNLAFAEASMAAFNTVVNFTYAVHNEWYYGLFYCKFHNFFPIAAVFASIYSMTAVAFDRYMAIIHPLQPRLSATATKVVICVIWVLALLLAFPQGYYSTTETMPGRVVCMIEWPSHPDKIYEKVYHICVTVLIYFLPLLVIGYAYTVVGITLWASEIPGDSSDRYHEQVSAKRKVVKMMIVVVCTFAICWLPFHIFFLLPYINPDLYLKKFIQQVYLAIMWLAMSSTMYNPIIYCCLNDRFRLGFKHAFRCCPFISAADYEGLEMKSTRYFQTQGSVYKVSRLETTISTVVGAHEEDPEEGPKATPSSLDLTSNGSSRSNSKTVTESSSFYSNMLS
row,Binder,Substance P GPI antagonist Ke [nM]
1,"H-Y[dA]GFLPLW-{OBzl(3,5-(CF3)2)} (also: TFA salt, TFA salt; also called TY004) [H-Tyr-D-Ala-Gly-Phe-Leu-Pro-Leu-Trp-O-3,5-Bzl(CF3)2]",19.4
2,"H-Y[dA]GF[Met(O)]PLW-{OBzl(3,5-(CF3)2)} (also: TFA salt, TFA salt; also called TY023) [H-Tyr-D-Ala-Gly-Phe-Met(O)-Pro-Leu-Trp-O-3,5-Bzl(CF3)2]",7.8
3,B1,7.9

# Biological target: human δ opioid receptor (human, UniProt P41143 1-372)
# Assay: cell-based or functional assay
# Target sequence in this assay (P41143 whole entry, stated change not applied): as the sequence (P41143 whole entry, stated change not applied) above
row,Binder,GTP EMax
1,Y[dA]GFGW-{O‑Bzl(CF3)2} [Tyr-DAla-Gly-Phe-Gly-Trp-O-Bzl(CF3)2],87
2,Y[dA]GF[βAla]W-{O‑Bzl(CF3)2} (also called NP32) [Tyr-DAla-Gly-Phe-β-Ala-Trp-O-Bzl(CF3)2],87

# Biological target: T3, rat µ opioid receptor (rat, UniProt P33535 1-398)
# Assay: cell-based or functional assay
# T3 sequence (P33535 whole entry): as the sequence (P33535 whole entry) above
row,Binder,GTP EMax
1,Y[dA]GFGW-{O‑Bzl(CF3)2} [Tyr-DAla-Gly-Phe-Gly-Trp-O-Bzl(CF3)2],36
2,Y[dA]GF[βAla]W-{O‑Bzl(CF3)2} (also called NP32) [Tyr-DAla-Gly-Phe-β-Ala-Trp-O-Bzl(CF3)2],70

# Biological target: T4, human δ opioid receptor (human, UniProt P41143 1-372)
# Assay: cell-based or functional assay
# T4 sequence (P41143 whole entry, stated change not applied): as the sequence (P41143 whole entry, stated change not applied) above
Binder,GTP binding hDOR EC50 [nM],GTP binding hDOR Emax [%]
"Y[dA]GF[dF]PLW-{OBzl(3,5-(CF3)2)} [TyrDAlaGlyPheDPheProLeuTrpOBn(CF3)2 (TY007)]",16.7,22.9
"Y[dA]GFGPLW-{OBzl(3,5-(CF3)2)} [TyrDAlaGlyPheGlyProLeuTrpOBn(CF3)2 (TY006)]",50.2,33.6
"Y[dA]GFLPLW-{OBzl(3,5-(CF3)2)} [TyrDAlaGlyPheLeuProLeuTrpOBn(CF3)2 (TY004)]",9.6,42.5
Y[dA]GFFPLW-OBn [TyrDAlaGlyPhePheProLeuTrpOBn (TY014)],25.6,137
"Y[dA]GFFPLW-{OBzl(3,5-(CF3)2)} [TyrDAlaGlyPhePheProLeuTrpOBn(CF3)2 (TY003)]",20.8,39

# Biological target: T5, rat µ opioid receptor (rat, UniProt P33535 1-398)
# Assay: cell-based or functional assay
# T5 sequence (P33535 whole entry): as the sequence (P33535 whole entry) above
Binder,GTP binding rMOR EC50 [nM],GTP binding rMOR Emax [%]
"Y[dA]GF[dF]PLW-{OBzl(3,5-(CF3)2)} [TyrDAlaGlyPheDPheProLeuTrpOBn(CF3)2 (TY007)]",345,23.6
"Y[dA]GFGPLW-{OBzl(3,5-(CF3)2)} [TyrDAlaGlyPheGlyProLeuTrpOBn(CF3)2 (TY006)]",41.7,35.9
"Y[dA]GFLPLW-{OBzl(3,5-(CF3)2)} [TyrDAlaGlyPheLeuProLeuTrpOBn(CF3)2 (TY004)]",,44.5
Y[dA]GFFPLW-OBn [TyrDAlaGlyPhePheProLeuTrpOBn (TY014)],76,72.3
"Y[dA]GFFPLW-{OBzl(3,5-(CF3)2)} [TyrDAlaGlyPhePheProLeuTrpOBn(CF3)2 (TY003)]",58.7,36.3

# Biological target: µ opioid receptor of the guinea pig isolated ileum (guinea pig, UniProt P97266 1-98)
# Assay: cell-based or functional assay
# µ opioid receptor of the guinea pig isolated ileum, sequence (P97266 whole entry): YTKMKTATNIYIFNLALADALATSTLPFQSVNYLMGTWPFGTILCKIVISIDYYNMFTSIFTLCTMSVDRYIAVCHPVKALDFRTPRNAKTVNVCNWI
row,Binder,GPI/LMMP opioid(mu) agonist IC50
1,"Y[dA]GF[dF]PLW-{OBzl(3,5-(CF3)2)} [TyrDAlaGlyPheDPheProLeuTrpOBn(CF3)2 (TY007)]",9.2%
2,"Y[dA]GFGPLW-{OBzl(3,5-(CF3)2)} [TyrDAlaGlyPheGlyProLeuTrpOBn(CF3)2 (TY006)]",384 nM
3,"Y[dA]GFLPLW-{OBzl(3,5-(CF3)2)} [TyrDAlaGlyPheLeuProLeuTrpOBn(CF3)2 (TY004)]",341 nM
4,"Y[dA]GFFPLW-{OBzl(3,5-(CF3)2)} [TyrDAlaGlyPhePheProLeuTrpOBn(CF3)2 (TY003)]",6.6 % @ 1 uM

# Biological target: guinea pig NK1 receptor (guinea pig, UniProt P30547 1-407)
# Assay: cell-based or functional assay
# Remark: another data set of the same source
# Target sequence in this assay (P30547 whole entry): as the sequence (P30547 whole entry) above
row,Binder,GPI/LMMP SP antagonist Ke [nM]
1,"Y[dA]GF[dF]PLW-{OBzl(3,5-(CF3)2)} [TyrDAlaGlyPheDPheProLeuTrpOBn(CF3)2 (TY007)]",69.6
2,"Y[dA]GFGPLW-{OBzl(3,5-(CF3)2)} [TyrDAlaGlyPheGlyProLeuTrpOBn(CF3)2 (TY006)]",5.4
3,"Y[dA]GFLPLW-{OBzl(3,5-(CF3)2)} [TyrDAlaGlyPheLeuProLeuTrpOBn(CF3)2 (TY004)]",19.4
4,"Y[dA]GFFPLW-{OBzl(3,5-(CF3)2)} [TyrDAlaGlyPhePheProLeuTrpOBn(CF3)2 (TY003)]",14.4

# Biological target: T3, rat µ opioid receptor
# Assay: competition vs [3H]DAMGO, rMOR cell membranes
row,Binder,Ki [nM]
1,Y[dA]GF[βAla]W-{O‑Bzl(CF3)2} (also called NP32) [Tyr-DAla-Gly-Phe-β-Ala-Trp-O-Bzl(CF3)2],11.2

# Biological target: T6, rat NK1 receptor (rat, UniProt P14600 1-407)
# T6 construct: whole, on cells; membrane preparations of the transfected cells were used; also called rNK1; rNK-1
# Assay: competition vs [3H]Substance P, rNK1 CHO cell membranes
# T6 sequence (P14600 whole entry): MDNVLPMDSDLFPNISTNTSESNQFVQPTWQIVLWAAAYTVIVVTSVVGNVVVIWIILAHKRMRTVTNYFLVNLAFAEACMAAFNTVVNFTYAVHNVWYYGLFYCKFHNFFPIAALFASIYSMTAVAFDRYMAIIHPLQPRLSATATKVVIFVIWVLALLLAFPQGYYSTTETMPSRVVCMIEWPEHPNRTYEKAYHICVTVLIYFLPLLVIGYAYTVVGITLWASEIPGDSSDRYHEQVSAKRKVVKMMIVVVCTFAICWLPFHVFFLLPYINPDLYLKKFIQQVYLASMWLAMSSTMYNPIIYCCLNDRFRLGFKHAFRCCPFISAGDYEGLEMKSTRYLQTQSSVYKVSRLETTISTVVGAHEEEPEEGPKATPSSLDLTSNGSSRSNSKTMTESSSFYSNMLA
row,Binder,Ki [nM]
1,Y[dA]GF[βAla]W-{O‑Bzl(CF3)2} (also called NP32) [Tyr-DAla-Gly-Phe-β-Ala-Trp-O-Bzl(CF3)2],1.6

# Biological target: T5, rat µ opioid receptor
# Assay: radioligand competition vs [3H]DAMGO, membranes of rMOR cells
row,Binder,Ki [nM]
1,"Y[dA]GF[dF]PLW-{OBzl(3,5-(CF3)2)} [TyrDAlaGlyPheDPheProLeuTrpOBn(CF3)2 (TY007)]",410
2,"Y[dA]GFGPLW-{OBzl(3,5-(CF3)2)} [TyrDAlaGlyPheGlyProLeuTrpOBn(CF3)2 (TY006)]",27
3,"Y[dA]GFLPLW-{OBzl(3,5-(CF3)2)} [TyrDAlaGlyPheLeuProLeuTrpOBn(CF3)2 (TY004)]",23.3
4,Y[dA]GFFPLW-OBn [TyrDAlaGlyPhePheProLeuTrpOBn (TY014)],36.3
5,"Y[dA]GFFPLW-{OBzl(3,5-(CF3)2)} [TyrDAlaGlyPhePheProLeuTrpOBn(CF3)2 (TY003)]",28.3

# Biological target: T4, human δ opioid receptor
# Assay: radioligand competition vs [3H]DPDPE, membranes of hDOR cells
row,Binder,Ki [nM]
1,"Y[dA]GF[dF]PLW-{OBzl(3,5-(CF3)2)} [TyrDAlaGlyPheDPheProLeuTrpOBn(CF3)2 (TY007)]",110
2,"Y[dA]GFGPLW-{OBzl(3,5-(CF3)2)} [TyrDAlaGlyPheGlyProLeuTrpOBn(CF3)2 (TY006)]",36.1
3,"Y[dA]GFLPLW-{OBzl(3,5-(CF3)2)} [TyrDAlaGlyPheLeuProLeuTrpOBn(CF3)2 (TY004)]",5
4,Y[dA]GFFPLW-OBn [TyrDAlaGlyPhePheProLeuTrpOBn (TY014)],11.5
5,"Y[dA]GFFPLW-{OBzl(3,5-(CF3)2)} [TyrDAlaGlyPhePheProLeuTrpOBn(CF3)2 (TY003)]",14.6

# Biological target: T2, rat µ opioid receptor
# Assay: competition vs [3H]DAMGO, membranes of rMOR-transfected HN9.10 cells
row,Binder,Ki [nM]
1,"H-Y[dA]GFLPLW-{OBzl(3,5-(CF3)2)} (also: TFA salt, TFA salt; also called TY004) [H-Tyr-D-Ala-Gly-Phe-Leu-Pro-Leu-Trp-O-3,5-Bzl(CF3)2]",23.3

# Biological target: T1, human δ opioid receptor
# Assay: competition vs [3H]DPDPE, membranes of hDOR-transfected HN9.10 cells
Binder,Ki [nM],LogIC50
"H-Y[dA]GFLPLW-{OBzl(3,5-(CF3)2)} (also: TFA salt, TFA salt; also called TY004) [H-Tyr-D-Ala-Gly-Phe-Leu-Pro-Leu-Trp-O-3,5-Bzl(CF3)2]",5,-7.97
"H-Y[dA]GF[Met(O)]PLW-{OBzl(3,5-(CF3)2)} (also: TFA salt, TFA salt; also called TY023) [H-Tyr-D-Ala-Gly-Phe-Met(O)-Pro-Leu-Trp-O-3,5-Bzl(CF3)2]",4.8,-7.92
B1,1.8,-8.42

# Biological target: T7, rat NK1 receptor (rat, UniProt P14600 1-407)
# T7 construct: whole, on cells; Assayed as membrane preparations of transfected CHO cells; also called rNK1; rNK-1
# Assay: competition vs [3H]substance P, membranes of rNK1-transfected CHO cells
# T7 sequence (P14600 whole entry): as above
Binder,IC50 [nM],LogIC50
"H-Y[dA]GFLPLW-{OBzl(3,5-(CF3)2)} (also: TFA salt, TFA salt; also called TY004) [H-Tyr-D-Ala-Gly-Phe-Leu-Pro-Leu-Trp-O-3,5-Bzl(CF3)2]",20.9,-7.7
"H-Y[dA]GF[Met(O)]PLW-{OBzl(3,5-(CF3)2)} (also: TFA salt, TFA salt; also called TY023) [H-Tyr-D-Ala-Gly-Phe-Met(O)-Pro-Leu-Trp-O-3,5-Bzl(CF3)2]",54.5,-7.27

# Biological target: T8, human NK1 receptor (human, UniProt P25103 1-407)
# T8 construct: whole, on cells; Used as membrane preparations of transfected CHO cells; also called hNK1; human neurokinin-1 receptor
# Assay: radioligand competition vs [3H]substance P, membranes of hNK1 CHO cells
# T8 sequence (P25103 whole entry): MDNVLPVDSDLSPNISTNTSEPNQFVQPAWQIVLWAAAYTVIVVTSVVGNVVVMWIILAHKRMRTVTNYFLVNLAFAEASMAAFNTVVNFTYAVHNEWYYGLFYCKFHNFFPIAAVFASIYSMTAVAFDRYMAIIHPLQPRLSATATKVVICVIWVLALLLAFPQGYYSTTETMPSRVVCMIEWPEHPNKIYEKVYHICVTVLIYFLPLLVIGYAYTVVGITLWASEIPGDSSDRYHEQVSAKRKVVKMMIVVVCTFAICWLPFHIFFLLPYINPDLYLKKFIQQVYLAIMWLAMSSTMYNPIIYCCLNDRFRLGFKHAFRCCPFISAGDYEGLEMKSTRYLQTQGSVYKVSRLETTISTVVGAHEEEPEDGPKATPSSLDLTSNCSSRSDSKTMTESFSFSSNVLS
row,Binder,Ki [nM]
1,"Y[dA]GF[dF]PLW-{OBzl(3,5-(CF3)2)} [TyrDAlaGlyPheDPheProLeuTrpOBn(CF3)2 (TY007)]",1.3
2,"Y[dA]GFGPLW-{OBzl(3,5-(CF3)2)} [TyrDAlaGlyPheGlyProLeuTrpOBn(CF3)2 (TY006)]",0.016
3,"Y[dA]GFLPLW-{OBzl(3,5-(CF3)2)} [TyrDAlaGlyPheLeuProLeuTrpOBn(CF3)2 (TY004)]",0.016
4,Y[dA]GFFPLW-OBn [TyrDAlaGlyPhePheProLeuTrpOBn (TY014)],0.265
5,"Y[dA]GFFPLW-{OBzl(3,5-(CF3)2)} [TyrDAlaGlyPhePheProLeuTrpOBn(CF3)2 (TY003)]",0.021

# Biological target: T9, rat NK1 receptor (rat, UniProt P14600 1-407)
# T9 construct: whole, on cells; Used as membrane preparations of transfected CHO cells; also called rNK1; rat neurokinin-1 receptor
# Assay: radioligand competition vs [3H]substance P, membranes of rNK1 CHO cells
# T9 sequence (P14600 whole entry): as the sequence (P14600 whole entry) above
row,Binder,Ki [nM]
1,"Y[dA]GF[dF]PLW-{OBzl(3,5-(CF3)2)} [TyrDAlaGlyPheDPheProLeuTrpOBn(CF3)2 (TY007)]",3
2,"Y[dA]GFGPLW-{OBzl(3,5-(CF3)2)} [TyrDAlaGlyPheGlyProLeuTrpOBn(CF3)2 (TY006)]",1
3,"Y[dA]GFLPLW-{OBzl(3,5-(CF3)2)} [TyrDAlaGlyPheLeuProLeuTrpOBn(CF3)2 (TY004)]",0.8
4,Y[dA]GFFPLW-OBn [TyrDAlaGlyPhePheProLeuTrpOBn (TY014)],124
5,"Y[dA]GFFPLW-{OBzl(3,5-(CF3)2)} [TyrDAlaGlyPhePheProLeuTrpOBn(CF3)2 (TY003)]",0.88

# Reference: patent US8026218 (UNIVERSITY OF ARIZONA, dated 2011)
